Assay results taken from patent US20070059309A1 (Genentech, published 2007).

Tests used:
Assay in all cases: cell-based or functional assay
recombinant human IFN-α5 [1] = target: T1, recombinant human IFN-α5 (human, UniProt P01569 24-189, limits assumed)
recombinant human IFN-α5 [2] = target: T1, recombinant human IFN-α5; remark: listed apart in the source
recombinant human IFN-α4 = recombinant human IFN-α4 (human, UniProt P05014 24-189)
recombinant human IFN-α1 = recombinant human IFN-α1 (human)
Sequence of recombinant human IFN-α1 (human) (P01562 24-189): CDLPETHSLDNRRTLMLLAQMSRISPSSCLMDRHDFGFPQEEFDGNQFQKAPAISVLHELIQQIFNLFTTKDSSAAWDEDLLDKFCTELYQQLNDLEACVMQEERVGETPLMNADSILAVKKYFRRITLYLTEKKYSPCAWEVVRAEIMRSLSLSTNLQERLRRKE

T1 sequence (P01569 24-189 limits assumed): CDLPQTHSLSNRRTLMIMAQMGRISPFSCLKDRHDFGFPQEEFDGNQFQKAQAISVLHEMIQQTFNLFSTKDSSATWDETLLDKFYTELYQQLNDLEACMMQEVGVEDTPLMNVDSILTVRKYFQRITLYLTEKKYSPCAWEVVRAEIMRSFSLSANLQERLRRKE
Sequence of recombinant human IFN-α4 (P05014 24-189 limits assumed): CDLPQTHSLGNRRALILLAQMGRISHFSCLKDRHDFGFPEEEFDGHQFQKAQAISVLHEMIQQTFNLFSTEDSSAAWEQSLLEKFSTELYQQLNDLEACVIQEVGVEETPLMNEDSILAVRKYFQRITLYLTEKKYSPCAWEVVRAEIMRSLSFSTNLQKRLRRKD

B1: murine anti-human IFN-α monoclonal antibody 9F3 (antibody, IgG2, V domains shown)
VL: DIVLTQSPASLAVSLGQRATISCRASQSVSTSSYSYMHWYQQKPGQPPKVLISYASNLESGVPARFSGSGSGTDFTLNIHPVEEGDTATYFCQHSWGIPRTFGAGTKLELRR
V domain: EVQLQQSGPELVKPGASVKISCKTSGYTFTEYIIHWVKQGHGRSLEWIGSINPDYDITNYNQRFKGKATLTLDKSSRTAYLELRSLTSEDSAVYYCASWISDFFDYWGQGTTLMVSA
EC50 (read off the curve); neutralization of anti-viral activity, EMC virus / A549 cells [left panel] (recombinant human IFN-α5 [1]): ~0.2 µg/mL | EC50 (read off the curve); neutralization of anti-viral activity, EMC virus / A549 cells (recombinant human IFN-α5 [2]): ~1 µg/mL | EC50 (read off the curve); neutralization of anti-viral activity, EMC virus / A549 cells (recombinant human IFN-α4): ~1 µg/mL

B2: chimeric protein CH8-2 (antibody, V domains shown)
VL: DIVLTQSPASLAVSLGQRATISCRASQSVSTSSYSYMHWYQQKPGQPPKVLISYASNLESGVPARFSGSGSGTDFTLNIHPVEEGDTATYFCQHSWGIPRTFGAGTKLELRR
V domain: EVQLQQSGPELVKPGASVKISCKTSGYTFTEYIIHWVKQGHGRSLEWIGSINPDYDITNYNQRFKGKATLTLDKSSRTAYLELRSLTSEDSAVYYCASWISDFFDYWGQGTTLMVSA
EC50 (read off the curve); neutralization of anti-viral activity, EMC virus / A549 cells [right panel] (recombinant human IFN-α1): ~2 µg/mL
